Patent US20130089497A1 (Genentech, published 2013)
Substitutions are numbered along the chain they refer to.

T1: cynomolgus FcRH5 on stably transfected SVT2 cells (cynomologous monkey)
T1 construct: also called cyno FcRH5; cynoFcRH5
T1 chain: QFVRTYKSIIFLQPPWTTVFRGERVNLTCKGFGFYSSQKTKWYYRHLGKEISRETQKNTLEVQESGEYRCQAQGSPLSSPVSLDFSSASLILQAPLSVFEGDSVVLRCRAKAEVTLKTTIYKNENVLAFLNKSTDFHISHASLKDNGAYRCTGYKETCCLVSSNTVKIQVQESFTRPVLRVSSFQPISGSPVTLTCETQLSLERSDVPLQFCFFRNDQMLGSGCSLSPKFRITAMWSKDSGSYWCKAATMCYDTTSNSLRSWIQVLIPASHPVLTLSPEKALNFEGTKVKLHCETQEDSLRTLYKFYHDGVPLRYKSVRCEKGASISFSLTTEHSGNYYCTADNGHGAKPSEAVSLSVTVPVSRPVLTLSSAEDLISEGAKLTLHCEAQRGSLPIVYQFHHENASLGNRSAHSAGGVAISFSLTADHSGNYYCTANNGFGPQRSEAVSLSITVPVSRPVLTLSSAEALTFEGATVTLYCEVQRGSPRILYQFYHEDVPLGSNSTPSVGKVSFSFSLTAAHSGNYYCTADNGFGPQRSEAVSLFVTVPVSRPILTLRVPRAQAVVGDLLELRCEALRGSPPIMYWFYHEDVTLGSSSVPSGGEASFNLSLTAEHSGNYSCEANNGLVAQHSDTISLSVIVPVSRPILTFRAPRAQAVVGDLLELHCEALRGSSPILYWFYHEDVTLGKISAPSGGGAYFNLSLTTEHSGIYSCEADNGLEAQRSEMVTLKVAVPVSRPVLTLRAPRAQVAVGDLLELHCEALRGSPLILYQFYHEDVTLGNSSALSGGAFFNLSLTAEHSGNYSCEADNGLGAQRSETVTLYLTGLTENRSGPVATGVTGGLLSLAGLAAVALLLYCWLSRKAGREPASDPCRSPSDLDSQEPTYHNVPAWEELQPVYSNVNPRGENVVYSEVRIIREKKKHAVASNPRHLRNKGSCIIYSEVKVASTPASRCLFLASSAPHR

T2: human FcRH5 on stably transfected cells (BJAB.huFcRH5, OPM2.huFcRH5) (human, UniProt Q96RD9 16-977)
T2 construct: also called BJAB-FcRH5; OPM2-FcRH5
T2 chain: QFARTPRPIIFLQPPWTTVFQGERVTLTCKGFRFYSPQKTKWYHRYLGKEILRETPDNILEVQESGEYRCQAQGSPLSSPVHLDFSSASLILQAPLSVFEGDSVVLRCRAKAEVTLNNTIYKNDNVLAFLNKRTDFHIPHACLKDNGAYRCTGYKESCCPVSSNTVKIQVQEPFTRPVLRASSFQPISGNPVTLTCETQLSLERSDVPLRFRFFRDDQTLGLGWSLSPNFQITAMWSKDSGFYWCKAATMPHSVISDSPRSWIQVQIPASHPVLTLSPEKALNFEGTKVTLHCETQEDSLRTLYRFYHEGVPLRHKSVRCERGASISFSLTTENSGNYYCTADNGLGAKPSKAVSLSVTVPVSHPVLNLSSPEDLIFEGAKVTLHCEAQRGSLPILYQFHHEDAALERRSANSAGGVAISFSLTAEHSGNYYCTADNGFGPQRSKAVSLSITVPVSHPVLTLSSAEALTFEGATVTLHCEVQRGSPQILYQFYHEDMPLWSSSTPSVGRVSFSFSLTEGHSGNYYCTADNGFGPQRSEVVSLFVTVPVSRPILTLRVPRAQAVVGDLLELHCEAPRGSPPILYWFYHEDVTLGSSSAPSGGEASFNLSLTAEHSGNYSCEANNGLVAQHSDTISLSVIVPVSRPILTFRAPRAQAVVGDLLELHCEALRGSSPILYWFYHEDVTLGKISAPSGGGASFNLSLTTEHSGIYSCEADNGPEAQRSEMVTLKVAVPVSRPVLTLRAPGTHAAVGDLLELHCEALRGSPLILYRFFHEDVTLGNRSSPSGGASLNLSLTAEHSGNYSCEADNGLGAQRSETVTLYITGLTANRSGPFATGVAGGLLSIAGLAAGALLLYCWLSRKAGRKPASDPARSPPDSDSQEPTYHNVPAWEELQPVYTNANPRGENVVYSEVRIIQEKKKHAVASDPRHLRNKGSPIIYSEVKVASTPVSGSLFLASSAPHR

B1: humanized anti-FcRH5 antibody 13G9 version 1 (antibody, human IgG1, V domains shown)
VH: EVQLVQSGGGLVQPGGSLRLSCAASGYTFTNYGMNWVRQAPGKGLEWVGWVNTYTGEPTYTDDFKGRFTFSVDTSKSTVYLQMNSLRAEDTAVYYCARRSIPYYYAMDYWGQGTLVTVS
VL: DIQMTQSPSSLSASVGDRVTITCKASQNVGSNVAWYQQKPGKAPKALIYSASYRYSGVPSRFSGSGSGTDFTLTISSLQPEDFATYYCQQYKTWTFGQGTKVEIKR
notes: also called hu13G9.v1; hu13G9 v1
B2: humanized anti-FcRH5 antibody hu13G9.1b (antibody, human IgG1, V domains shown)
VH: B1 VH
VL: B1 VL with Y87F
notes: Full IgG as hu13G9.1a (human IgG1, kappa)

Experiments:
[1] = target: T1, cynomolgus FcRH5 on stably transfected …; test: Scatchard analysis: 0.5 nM 125I-labeled antibody competed with the unlabeled antibody (50 to 0.02 nM) on SVT2.cyFcRH5 cells, 4 h at 4 C; St. Error 0.027
Protocol: (§1) To further determine binding of the FcRH5 murine antibodies and IgG clones, binding of iodinated IgG variants to OPM2 cells expressing human FcRH5 and SVT2 cells expressing cynomologous FcRH5, Scatchard analysis was performed (Table 9A).
(§2) For Scatchard analysis, 0.5 nM I¹²⁵ labeled murine or IgG clone anti-FcRH5 was competed against unlabeled murine or IgG clone anti-FcRH5, respectively, ranging from 50 to 0.02 nM (12 step 1:2 serial dilution) in the presence of a transfected OPM2 line stably expressing human-FcRH5 and a transfected SVT2 line stably expressing cynomologous-FcRH5. After a four hour incubation at 4° C., cells were washed and cell pellet counts were read by a gamma counter (1470 WIZARD Automatic Gamma Counter; Perkin Elmer, Walthem, Mass.). All points were done in triplicate and counted for 10 minutes. The average CPM was used for Kd calculation using the New Ligand (Genentech, South San Francisco, Calif.) program.

[2] = target: T2, human FcRH5 on stably transfected cells …; test: Scatchard analysis: 0.5 nM 125I-labeled antibody competed with the unlabeled antibody (50 to 0.02 nM) on OPM2.huFcRH5 cells, 4 h at 4 C; St. Error 0.012
Protocol: as §1, §2

[3] = target: T1, cynomolgus FcRH5 on stably transfected …; test: Scatchard analysis: 0.5 nM 125I-labeled antibody competed with the unlabeled antibody (50 to 0.02 nM) on SVT2.cyFcRH5 cells (printed SVT2.cyFcRHS), 4 h at 4 C; St. Error 0.012
Protocol: as §1, §2

[4] = target: T2, human FcRH5 on stably transfected cells …; test: Scatchard analysis: 0.5 nM 125I-labeled antibody competed with the unlabeled antibody (50 to 0.02 nM) on OPM2.huFcRH5 cells, 4 h at 4 C; St. Error 0.027
Protocol: as §1, §2

| Binder | Kd [1] [nM] | Kd [2] [nM] | Kd [3] [nM] | Kd [4] [nM] |
| --- | --- | --- | --- | --- |
| B1 | 0.56 | 0.2 |  |  |
| B2 |  |  | 0.53 | 0.3 |
